The assay deals with human UNC80 (uncoordinated 80; protein unc-80 homolog) (human) (UniProt Q8N2C7). Briefly: cryo-EM structure, crossover interface.
Sequence of human UNC80 (uncoordinated 80; protein unc-80 homolog) (human) (Q8N2C7 whole entry): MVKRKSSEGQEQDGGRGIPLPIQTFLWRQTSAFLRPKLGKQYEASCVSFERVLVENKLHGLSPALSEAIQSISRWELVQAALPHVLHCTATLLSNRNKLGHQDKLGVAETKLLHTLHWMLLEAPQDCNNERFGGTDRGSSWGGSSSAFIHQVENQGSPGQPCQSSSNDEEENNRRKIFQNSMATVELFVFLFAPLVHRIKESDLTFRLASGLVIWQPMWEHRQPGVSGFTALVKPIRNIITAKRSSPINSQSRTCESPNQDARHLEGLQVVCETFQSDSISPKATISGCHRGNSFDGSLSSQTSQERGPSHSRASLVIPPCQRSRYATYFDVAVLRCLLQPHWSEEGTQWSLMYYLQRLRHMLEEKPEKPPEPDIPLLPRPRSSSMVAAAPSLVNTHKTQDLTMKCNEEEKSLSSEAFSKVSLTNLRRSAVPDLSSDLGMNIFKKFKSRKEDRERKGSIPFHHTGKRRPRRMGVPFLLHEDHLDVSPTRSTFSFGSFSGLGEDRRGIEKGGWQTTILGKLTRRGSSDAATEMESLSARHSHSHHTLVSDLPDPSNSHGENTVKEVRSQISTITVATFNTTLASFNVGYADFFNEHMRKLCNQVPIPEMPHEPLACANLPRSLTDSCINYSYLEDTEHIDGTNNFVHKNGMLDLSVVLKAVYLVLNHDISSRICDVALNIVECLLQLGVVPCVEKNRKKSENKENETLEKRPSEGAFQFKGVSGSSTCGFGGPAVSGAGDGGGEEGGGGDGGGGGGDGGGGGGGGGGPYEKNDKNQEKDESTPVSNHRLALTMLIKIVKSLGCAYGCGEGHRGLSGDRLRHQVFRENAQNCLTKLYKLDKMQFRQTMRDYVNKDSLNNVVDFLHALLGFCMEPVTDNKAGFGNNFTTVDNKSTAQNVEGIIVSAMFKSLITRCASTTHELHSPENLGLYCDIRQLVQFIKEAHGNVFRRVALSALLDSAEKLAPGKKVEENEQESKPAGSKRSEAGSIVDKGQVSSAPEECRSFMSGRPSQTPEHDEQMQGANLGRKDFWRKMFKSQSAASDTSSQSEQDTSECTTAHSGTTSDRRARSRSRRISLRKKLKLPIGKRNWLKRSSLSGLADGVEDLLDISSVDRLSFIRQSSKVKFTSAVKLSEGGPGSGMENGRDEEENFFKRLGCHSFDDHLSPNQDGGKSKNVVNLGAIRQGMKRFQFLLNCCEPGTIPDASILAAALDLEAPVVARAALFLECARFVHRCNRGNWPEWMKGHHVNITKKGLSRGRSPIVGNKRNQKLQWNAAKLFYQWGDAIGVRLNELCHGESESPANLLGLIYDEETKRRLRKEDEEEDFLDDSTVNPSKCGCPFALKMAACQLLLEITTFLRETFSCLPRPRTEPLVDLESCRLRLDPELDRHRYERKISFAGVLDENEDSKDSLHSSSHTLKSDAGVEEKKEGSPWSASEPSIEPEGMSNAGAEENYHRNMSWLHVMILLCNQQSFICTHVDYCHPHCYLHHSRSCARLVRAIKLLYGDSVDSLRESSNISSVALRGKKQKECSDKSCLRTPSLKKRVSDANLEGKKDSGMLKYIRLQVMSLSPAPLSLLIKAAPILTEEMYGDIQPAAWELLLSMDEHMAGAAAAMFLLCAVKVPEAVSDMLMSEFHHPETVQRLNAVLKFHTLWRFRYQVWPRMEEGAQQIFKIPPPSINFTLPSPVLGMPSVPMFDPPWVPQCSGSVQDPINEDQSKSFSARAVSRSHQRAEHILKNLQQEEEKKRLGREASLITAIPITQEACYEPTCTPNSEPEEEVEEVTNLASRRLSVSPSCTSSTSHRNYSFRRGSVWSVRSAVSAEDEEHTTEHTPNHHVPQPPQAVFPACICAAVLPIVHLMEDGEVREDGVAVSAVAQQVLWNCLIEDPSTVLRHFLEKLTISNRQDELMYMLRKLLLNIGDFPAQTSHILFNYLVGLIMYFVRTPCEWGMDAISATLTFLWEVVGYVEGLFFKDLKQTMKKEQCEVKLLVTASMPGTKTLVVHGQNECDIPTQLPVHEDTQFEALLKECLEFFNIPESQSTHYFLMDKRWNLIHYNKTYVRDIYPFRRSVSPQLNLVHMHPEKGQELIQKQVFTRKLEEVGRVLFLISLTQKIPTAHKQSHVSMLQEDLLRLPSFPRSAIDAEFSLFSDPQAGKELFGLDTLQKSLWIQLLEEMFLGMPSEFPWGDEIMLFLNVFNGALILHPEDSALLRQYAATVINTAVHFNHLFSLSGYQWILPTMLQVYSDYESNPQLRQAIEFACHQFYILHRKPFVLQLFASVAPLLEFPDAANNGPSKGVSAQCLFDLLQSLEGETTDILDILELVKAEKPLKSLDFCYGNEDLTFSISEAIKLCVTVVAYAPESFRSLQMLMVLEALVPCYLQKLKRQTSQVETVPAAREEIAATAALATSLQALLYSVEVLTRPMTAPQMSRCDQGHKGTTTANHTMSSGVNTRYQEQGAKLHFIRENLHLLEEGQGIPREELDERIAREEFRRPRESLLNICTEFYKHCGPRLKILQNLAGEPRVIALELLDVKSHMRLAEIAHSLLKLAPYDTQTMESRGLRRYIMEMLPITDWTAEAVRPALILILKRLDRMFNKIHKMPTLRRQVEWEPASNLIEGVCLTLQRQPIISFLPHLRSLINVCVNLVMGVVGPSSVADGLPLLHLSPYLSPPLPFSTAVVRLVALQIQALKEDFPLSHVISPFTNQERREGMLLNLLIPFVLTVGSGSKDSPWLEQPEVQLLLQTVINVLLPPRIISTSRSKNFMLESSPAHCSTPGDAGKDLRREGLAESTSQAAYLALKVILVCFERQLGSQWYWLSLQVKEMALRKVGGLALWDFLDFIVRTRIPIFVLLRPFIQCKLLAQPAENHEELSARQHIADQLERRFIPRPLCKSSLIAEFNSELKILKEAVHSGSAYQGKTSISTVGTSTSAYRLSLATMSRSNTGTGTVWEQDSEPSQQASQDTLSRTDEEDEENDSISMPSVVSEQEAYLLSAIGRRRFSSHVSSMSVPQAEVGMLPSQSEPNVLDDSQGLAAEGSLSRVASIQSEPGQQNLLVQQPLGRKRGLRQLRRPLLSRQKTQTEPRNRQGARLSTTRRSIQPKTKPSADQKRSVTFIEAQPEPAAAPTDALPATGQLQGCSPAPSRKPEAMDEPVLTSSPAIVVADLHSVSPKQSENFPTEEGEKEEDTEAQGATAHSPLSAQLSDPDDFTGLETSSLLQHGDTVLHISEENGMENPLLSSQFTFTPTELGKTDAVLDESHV

Substance “human UNC79 (uncoordinated 79; protein unc-79 homolog), Q9P2D8 1-2635” returned a buried solvent accessible surface area (crossover interface) of 3000 A2.

The record behind these values is patent US20240295565A1 (Genentech, published 2024).
